{
  "source": "patent US20130330355A1",
  "about": "(APEXIGEN, published 2013)",
  "key": {"recombinant human IL-1β [1]": {"target": "T1, recombinant human IL-1β (human, UniProt P01584 117-269)", "assay": "cell-based or functional assay"}, "recombinant human IL-1β [2]": {"target": "T1, recombinant human IL-1β", "assay": "SPR", "method": "Antigen binding affinities of anti-IL-1β antibodies were measured by surface Plasmon resonance (SPR)."}, "recombinant human IL-1β [3]": {"target": "T1, recombinant human IL-1β", "assay": "method not given"}, "recombinant human IL-1β [4]": {"target": "T1, recombinant human IL-1β", "assay": "cross-species reactivity assay, antibody titrated on IL-1β of each species, readout OD405nm"}, "monkey IL-1β": {"target": "monkey IL-1β (monkey)", "sequence (P48090 117-269)": "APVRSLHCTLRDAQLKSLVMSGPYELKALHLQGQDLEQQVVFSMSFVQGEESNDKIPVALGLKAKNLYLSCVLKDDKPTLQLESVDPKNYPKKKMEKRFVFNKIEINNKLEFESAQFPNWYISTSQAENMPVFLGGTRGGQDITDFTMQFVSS", "assay": "cross-species reactivity assay, antibody titrated on IL-1β of each species, readout OD405nm"}, "mouse IL-1β": {"target": "mouse IL-1β (mouse, UniProt P10749 118-269)", "sequence (P10749 118-269 limits assumed)": "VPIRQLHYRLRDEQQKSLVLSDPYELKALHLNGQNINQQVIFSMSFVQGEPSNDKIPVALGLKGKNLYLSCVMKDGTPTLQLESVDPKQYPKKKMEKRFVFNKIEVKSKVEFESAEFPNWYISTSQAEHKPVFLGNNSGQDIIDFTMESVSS", "assay": "cross-species reactivity assay, antibody titrated on IL-1β of each species, readout OD405nm"}},
  "data": [
    {"binder": "Q17 rabbit anti-IL-1β antibody (antibody, V domains shown) VH: QSVEESGGRLVTPGTPLILTCTVSGFSLDVYTVTWVRQAPGKGLEWIGYIWSGGSASYASWAKGRFTISKTSTTVDLKISSPTTEDTATYFCARVKMISNIETFDPWGPGTLVTVSS VL: AYDMTQTPASVEVVVGGTVTIKCQASERIYSGLAWYQQKPGQRPKLLIYRASTLASGVPSRFSGSGSGTEFTLTISDLECADAATYYCHQGVSSSDIDNVFGGGTEVVVK", "values": [
      {"measurement": "IC 50, neutralization of IL-1β-induced TF-1 cell proliferation", "setting": "recombinant human IL-1β [1]", "value": 1.13, "unit": "ng/mL"}
    ]},
    {"binder": "Q34 rabbit anti-IL-1β antibody (antibody, V domains shown) VH: QSVEESGGRLVTPGTPLILTCTVSGFSLDVYTVTWVRQAPGKGLEWIGYIWSGGSASYASWAKGRFTISKTSTTVDLKISSPTTEDTATYFCARVKMISNIETFDPWGPGTLVTVSS VL: AYDMTQTPASVEVVVGGTVTIKCQASERIYSGLAWYQQKPGQRPKLLIYRASTLASGVPSRFSGSGSGTEFTLTISDLECADAATYYCHQGVSSSDIDNVFGGGTEVVVK", "values": [
      {"measurement": "IC 50, neutralization of IL-1β-induced TF-1 cell proliferation", "setting": "recombinant human IL-1β [1]", "value": 0.55, "unit": "ng/mL"}
    ]},
    {"binder": "clone Q26 rabbit anti-IL-1β antibody (antibody, V domains shown, Recombinant rabbit IgG expressed in 293-6E cells; the rabbit constant regions are not; also called parental rabbit Q26) VH: QSVEESGGRLVTPGTPLILTCTVSGFSLDVYTVTWVRQAPGKGLEWIGYIWSGGSASYASWAKGRFTISKTSTTVDLKISSPTTEDTATYFCARVKMISNIETFDPWGPGTLVTVSS VL: AYDMTQTPASVEVVVGGTVTIKCQASERIYSGLAWYQQKPGQRPKLLIYRASTLASGVPSRFSGSGSGTEFTLTISDLECADAATYYCHQGVSSSDIDNVFGGGTEVVVK", "values": [
      {"measurement": "Kd", "setting": "recombinant human IL-1β [2]", "value": 199, "unit": "pM"},
      {"measurement": "koff", "setting": "recombinant human IL-1β [2]", "value": "3.8e-05", "unit": "s⁻¹"},
      {"measurement": "kon", "setting": "recombinant human IL-1β [2]", "value": 191000, "unit": "M⁻¹ s⁻¹"},
      {"measurement": "IC 50, neutralization of IL-1β-induced TF-1 cell proliferation", "setting": "recombinant human IL-1β [1]", "value": 0.54, "unit": "ng/mL"}
    ]},
    {"binder": "APX002 (humanized Q26) (antibody, V domains shown) VH: EVQLVESGGGLVQPGGSLRLSCAVSGFSLDVYTMTWVRQAPGKGLEWIGYIWSGGSASYASWAKGRFTISKDSSKNTVYLQINSLRAEDTAVYFCARVKMISNIETFDPWGPGTLVTVSS VL: DIQMTQSPSSVSASVGDRVTIKCQASERIYSGLAWYQQKPGKRPKLLIYRASTLASGVPSRFSGSGSGTDFTLTISSLQPEDFATYYCQQGVSSSDIDNVFGGGTKVEIK", "values": [
      {"measurement": "Kd", "setting": "recombinant human IL-1β [3]", "value": 199, "unit": "pM"},
      {"measurement": "EC50 (read off the curve)", "setting": "recombinant human IL-1β [4]", "value": "~600", "unit": "ng/mL"},
      {"measurement": "EC50 (read off the curve)", "setting": "monkey IL-1β", "value": "~600", "unit": "ng/mL"},
      {"measurement": "binding result", "setting": "mouse IL-1β", "value": "no binding (tested: 10 ug/ml)"}
    ]}
  ]
}
